Experimental data published in patent US20050282743A1, “Molecular interactions in cells” (Arbor Vita Corporation, priority 2001, published 2005).
Ends that are not written are not given here. * marks the point of attachment. Biotin = O=C1N[C@H]2[C@H](CS[C@H]2CCCCC(=O)*)N1

Experiments:
Assay in all cases: G' assay (10 uM PL peptide), results of TABLE 7 and TABLE 12
Type in all cases: binding
[1] = molecular target: T1, PDZ protein (GST-PDZ fusion) (Homo sapiens, UniProt Q6P0Q8)
T1 construct: made in house; host or cells: E. coli (DH5alpha, BL21 or JM109)
Excerpt: (§1) Each page of TABLE 7 and 12 includes seven columns. The columns in each table are numbered from left to right such that the left-most column in each table is column 1 and the right-most column in each table is column 7. Thus, the first column in each table is labeled “AVC ID”; this column simply lists an internal reference number used to refer to the carboxyl-terminal amino acids of the PL proteins listed in the second column. […] All PL peptides were biotinylated at the amino-terminus and the sequences of these PL peptides are presented in TABLE 8 (see end of specification).
(§2) This column provides the gene name for the PDZ portion of the GST-PDZ fusion that interacts with the PDZ-ligand to the left. For PDZ domain-containing proteins with multiple domains, the domain number is listed to the right of the PDZ (i.e., in column 5 labeled “PDZ Domain”), and indicates the PDZ domain number when numbered from the amino-terminus to the carboxy-terminus.
(§3) The third column labeled “Peptide Optimal Concentration” in the tables is a number reflective of the binding interaction between the PL protein and PDZ protein. […] The column labeled “Protein Optimal Concentration” refers to the protein concentration used to assay PL interaction (in ug/ml); a ‘0’ is indicative of 5 ug/ml protein concentration; any other value represents the concentration (in ug/ml) used to determine the dissociation constant for a given interaction.
(§4) Finally, the seventh column labeled “Classification” is another measure of the level of binding. In particular, it provides an absorbance value at 450 nm which indicates the amount of PL peptide bound to the PDZ protein. The following numerical values have the following meanings: ‘1’—A450 nm 0-1; ‘2’—A450 nm 1-2; ‘3’—A450 nm 2-3; ‘4’—A450 nm 3-4; ‘5’—A450 nm of 4 more than 2× repeated; ‘0’—A450 nm 0, i.e., not found to interact. Thus, higher numbers indicate stronger interactions.
(§5) For convenience, the assay conditions described in this section are referred to as the “G′ assay” and the “G″ assay,” with the specific conditions described in the preceding section on G assays being referred to as the “G^0 assay.” The “G′ assay” is identical to the “G^0 assay” except at step (2) the peptide concentration is 10 uM instead of 20 uM.

[2] = molecular target: T2, PDZ protein (GST-PDZ fusion) (Homo sapiens, UniProt Q9Y2H9); conditions: PDZ KIAA0973, PDZ Domain 1
T2 construct: made in house; host or cells: E. coli (DH5alpha, BL21 or JM109)
Excerpt: as §1, §2, §3, §4, §5

[3] = molecular target: T3, PDZ protein (GST-PDZ fusion) (Homo sapiens, UniProt Q9C0E4); conditions: PDZ KIAA1719, PDZ Domain 6
T3 construct: made in house; host or cells: E. coli (DH5alpha, BL21 or JM109)
Excerpt: as §1, §2, §3, §4, §5

[4] = molecular target: T4, PDZ protein (GST-PDZ fusion) (Homo sapiens, UniProt Q9NZN5); conditions: PDZ KIAA0382, PDZ Domain 1
T4 construct: made in house; host or cells: E. coli (DH5alpha, BL21 or JM109)
Excerpt: as §1, §2, §3, §4, §5

[5] = molecular target: T5, PDZ protein (GST-PDZ fusion) (Homo sapiens, UniProt O75970); conditions: PDZ MUPP-1, PDZ Domain 11
T5 construct: made in house; host or cells: E. coli (DH5alpha, BL21 or JM109)
Excerpt: as §1, §2, §3, §4, §5

[6] = molecular target: T6, PDZ protein (GST-PDZ fusion) (Homo sapiens, UniProt Q02410); conditions: PDZ Mint 1, PDZ Domain 2
T6 construct: made in house; host or cells: E. coli (DH5alpha, BL21 or JM109)
T6 sequence (Q02410 1-837): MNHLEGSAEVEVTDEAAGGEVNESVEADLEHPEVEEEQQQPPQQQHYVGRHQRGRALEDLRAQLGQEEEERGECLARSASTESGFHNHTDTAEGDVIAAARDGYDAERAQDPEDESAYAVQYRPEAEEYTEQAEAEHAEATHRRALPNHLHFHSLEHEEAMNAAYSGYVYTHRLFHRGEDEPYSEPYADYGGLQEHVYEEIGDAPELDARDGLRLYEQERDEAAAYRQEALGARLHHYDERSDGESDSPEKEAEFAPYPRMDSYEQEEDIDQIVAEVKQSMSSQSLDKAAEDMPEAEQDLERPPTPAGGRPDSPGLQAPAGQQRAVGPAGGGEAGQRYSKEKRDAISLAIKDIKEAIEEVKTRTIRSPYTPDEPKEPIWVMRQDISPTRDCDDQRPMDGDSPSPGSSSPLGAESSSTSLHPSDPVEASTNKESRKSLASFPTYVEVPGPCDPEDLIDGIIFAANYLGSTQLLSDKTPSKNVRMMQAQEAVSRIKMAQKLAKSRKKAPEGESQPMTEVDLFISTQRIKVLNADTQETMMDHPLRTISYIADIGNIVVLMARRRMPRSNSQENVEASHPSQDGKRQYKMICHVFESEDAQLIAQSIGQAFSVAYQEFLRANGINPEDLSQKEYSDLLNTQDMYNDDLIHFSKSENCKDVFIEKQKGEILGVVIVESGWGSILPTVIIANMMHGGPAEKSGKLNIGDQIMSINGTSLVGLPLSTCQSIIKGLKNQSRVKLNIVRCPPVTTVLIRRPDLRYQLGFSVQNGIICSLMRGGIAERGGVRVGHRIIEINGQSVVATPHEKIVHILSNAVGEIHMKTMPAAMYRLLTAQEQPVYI
Excerpt: as §1, §2, §3, §4, §5

[7] = molecular target: T7, PDZ protein (GST-PDZ fusion) (Homo sapiens, UniProt Q12959); conditions: PDZ DLG1, PDZ Domain 2
T7 construct: made in house; host or cells: E. coli (DH5alpha, BL21 or JM109)
Excerpt: as §1, §2, §3, §4, §5

[8] = molecular target: T8, PDZ protein (GST-PDZ fusion) (Homo sapiens, UniProt Q5TCQ9); conditions: PDZ KIAA1634, PDZ Domain 1
T8 construct: made in house; host or cells: E. coli (DH5alpha, BL21 or JM109)
T8 sequence (Q5TCQ9 1-1481): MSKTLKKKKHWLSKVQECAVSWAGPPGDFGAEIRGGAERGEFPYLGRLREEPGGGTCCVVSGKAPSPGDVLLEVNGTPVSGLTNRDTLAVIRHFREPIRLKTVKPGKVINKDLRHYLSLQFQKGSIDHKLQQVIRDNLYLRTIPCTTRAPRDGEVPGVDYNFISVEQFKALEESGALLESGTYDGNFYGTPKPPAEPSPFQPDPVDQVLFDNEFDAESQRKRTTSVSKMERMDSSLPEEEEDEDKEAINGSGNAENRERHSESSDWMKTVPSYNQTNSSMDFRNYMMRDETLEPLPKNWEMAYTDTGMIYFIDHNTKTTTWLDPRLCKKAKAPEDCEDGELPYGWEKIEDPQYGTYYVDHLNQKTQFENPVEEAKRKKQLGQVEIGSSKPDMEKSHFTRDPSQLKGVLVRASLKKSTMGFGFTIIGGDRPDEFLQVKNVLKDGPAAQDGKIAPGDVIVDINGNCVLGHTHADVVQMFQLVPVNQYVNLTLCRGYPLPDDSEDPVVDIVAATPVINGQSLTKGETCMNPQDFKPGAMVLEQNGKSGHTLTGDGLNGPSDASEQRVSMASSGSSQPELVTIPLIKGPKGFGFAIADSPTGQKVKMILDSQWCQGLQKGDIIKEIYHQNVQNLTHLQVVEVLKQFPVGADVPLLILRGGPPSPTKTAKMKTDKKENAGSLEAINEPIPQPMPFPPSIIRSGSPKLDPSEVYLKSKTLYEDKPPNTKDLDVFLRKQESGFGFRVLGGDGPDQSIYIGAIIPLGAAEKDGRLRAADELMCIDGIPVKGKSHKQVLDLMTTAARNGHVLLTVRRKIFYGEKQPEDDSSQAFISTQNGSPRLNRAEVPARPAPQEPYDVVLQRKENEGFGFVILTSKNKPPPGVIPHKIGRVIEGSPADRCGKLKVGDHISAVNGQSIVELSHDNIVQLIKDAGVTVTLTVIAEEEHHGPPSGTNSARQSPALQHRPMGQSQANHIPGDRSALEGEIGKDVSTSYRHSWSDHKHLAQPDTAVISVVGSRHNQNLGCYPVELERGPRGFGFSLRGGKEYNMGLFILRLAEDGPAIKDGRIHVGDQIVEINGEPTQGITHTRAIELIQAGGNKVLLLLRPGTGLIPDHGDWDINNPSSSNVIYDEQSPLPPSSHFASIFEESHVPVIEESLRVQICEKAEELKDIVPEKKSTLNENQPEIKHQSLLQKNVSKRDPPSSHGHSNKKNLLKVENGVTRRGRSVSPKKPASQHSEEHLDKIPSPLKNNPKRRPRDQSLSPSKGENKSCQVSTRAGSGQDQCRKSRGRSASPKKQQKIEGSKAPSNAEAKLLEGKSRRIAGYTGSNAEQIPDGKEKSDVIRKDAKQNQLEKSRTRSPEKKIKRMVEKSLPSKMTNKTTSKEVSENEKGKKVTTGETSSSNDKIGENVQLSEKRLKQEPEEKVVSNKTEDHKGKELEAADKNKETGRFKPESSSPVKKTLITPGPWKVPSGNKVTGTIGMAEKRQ
Excerpt: as §1, §2, §3, §4, §5

[9] = molecular target: T9, PDZ protein (GST-PDZ fusion) (Homo sapiens, UniProt Q8TEW0); conditions: PDZ PAR3, PDZ Domain 3
T9 construct: made in house; host or cells: E. coli (DH5alpha, BL21 or JM109)
Excerpt: as §1, §2, §3, §4, §5

[10] = molecular target: T10, PDZ protein (GST-PDZ fusion) (Homo sapiens, UniProt Q13796); conditions: PDZ hAPXL, PDZ Domain 1
T10 construct: made in house; host or cells: E. coli (DH5alpha, BL21 or JM109)
Excerpt: as §1, §2, §3, §4, §5

[11] = molecular target: T11, PDZ protein (GST-PDZ fusion) (Homo sapiens, UniProt O15018); conditions: PDZ AIPC, PDZ Domain 1
T11 construct: made in house; host or cells: E. coli (DH5alpha, BL21 or JM109)
Excerpt: as §1, §2, §3, §4, §5

[12] = molecular target: T12, PDZ protein (GST-PDZ fusion) (Homo sapiens, UniProt Q12923); conditions: PDZ PTPL-1, PDZ Domain 4
T12 construct: made in house; host or cells: E. coli (DH5alpha, BL21 or JM109)
Excerpt: as §1, §2, §3, §4, §5

T1 sequence (Q6P0Q8 whole entry, the tested form may be a part): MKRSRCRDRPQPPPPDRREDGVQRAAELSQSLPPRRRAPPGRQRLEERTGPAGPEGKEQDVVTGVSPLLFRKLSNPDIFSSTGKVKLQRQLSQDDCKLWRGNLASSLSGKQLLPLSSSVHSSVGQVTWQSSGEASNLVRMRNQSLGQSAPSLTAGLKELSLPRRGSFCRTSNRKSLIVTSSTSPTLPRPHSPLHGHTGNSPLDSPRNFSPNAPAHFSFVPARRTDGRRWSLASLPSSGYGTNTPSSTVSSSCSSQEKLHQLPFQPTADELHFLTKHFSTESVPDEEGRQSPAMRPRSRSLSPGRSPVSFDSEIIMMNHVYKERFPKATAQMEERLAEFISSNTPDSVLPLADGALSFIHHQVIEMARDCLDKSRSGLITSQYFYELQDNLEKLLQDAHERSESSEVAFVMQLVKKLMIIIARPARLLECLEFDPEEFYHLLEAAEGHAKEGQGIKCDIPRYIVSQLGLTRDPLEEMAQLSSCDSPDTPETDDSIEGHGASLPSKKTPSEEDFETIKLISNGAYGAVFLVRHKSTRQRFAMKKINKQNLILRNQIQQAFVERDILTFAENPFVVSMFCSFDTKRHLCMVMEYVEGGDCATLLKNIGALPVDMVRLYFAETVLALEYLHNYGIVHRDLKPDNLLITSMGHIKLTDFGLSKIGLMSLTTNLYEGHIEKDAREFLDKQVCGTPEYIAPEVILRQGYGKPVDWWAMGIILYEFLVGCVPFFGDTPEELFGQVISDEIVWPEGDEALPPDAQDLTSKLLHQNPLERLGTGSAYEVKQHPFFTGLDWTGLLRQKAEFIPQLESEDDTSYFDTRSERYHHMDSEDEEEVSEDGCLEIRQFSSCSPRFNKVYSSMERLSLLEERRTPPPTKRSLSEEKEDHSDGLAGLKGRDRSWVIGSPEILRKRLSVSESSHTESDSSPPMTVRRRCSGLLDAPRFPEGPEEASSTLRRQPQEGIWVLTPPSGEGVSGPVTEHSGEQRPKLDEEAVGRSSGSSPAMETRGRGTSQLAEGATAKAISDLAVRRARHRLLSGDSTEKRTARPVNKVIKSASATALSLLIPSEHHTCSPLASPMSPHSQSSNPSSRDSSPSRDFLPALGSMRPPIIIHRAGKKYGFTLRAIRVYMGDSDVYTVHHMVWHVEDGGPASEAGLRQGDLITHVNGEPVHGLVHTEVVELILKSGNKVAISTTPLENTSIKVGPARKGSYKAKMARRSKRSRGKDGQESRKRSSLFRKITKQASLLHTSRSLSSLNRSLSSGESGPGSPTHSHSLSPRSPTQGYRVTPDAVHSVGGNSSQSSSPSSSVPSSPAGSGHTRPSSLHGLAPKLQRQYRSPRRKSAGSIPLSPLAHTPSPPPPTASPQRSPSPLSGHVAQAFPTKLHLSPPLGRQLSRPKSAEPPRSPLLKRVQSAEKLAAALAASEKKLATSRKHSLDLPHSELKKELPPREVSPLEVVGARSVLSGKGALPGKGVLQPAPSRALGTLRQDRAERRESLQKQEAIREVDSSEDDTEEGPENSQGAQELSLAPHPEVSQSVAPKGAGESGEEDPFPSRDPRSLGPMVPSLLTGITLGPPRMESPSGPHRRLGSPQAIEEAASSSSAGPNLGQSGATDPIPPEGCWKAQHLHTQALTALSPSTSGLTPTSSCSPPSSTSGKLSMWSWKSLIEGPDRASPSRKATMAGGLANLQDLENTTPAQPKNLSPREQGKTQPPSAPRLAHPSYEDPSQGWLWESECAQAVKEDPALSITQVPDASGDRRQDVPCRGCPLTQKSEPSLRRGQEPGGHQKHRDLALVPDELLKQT
T9 sequence (Q8TEW0 whole entry, the tested form may be a part): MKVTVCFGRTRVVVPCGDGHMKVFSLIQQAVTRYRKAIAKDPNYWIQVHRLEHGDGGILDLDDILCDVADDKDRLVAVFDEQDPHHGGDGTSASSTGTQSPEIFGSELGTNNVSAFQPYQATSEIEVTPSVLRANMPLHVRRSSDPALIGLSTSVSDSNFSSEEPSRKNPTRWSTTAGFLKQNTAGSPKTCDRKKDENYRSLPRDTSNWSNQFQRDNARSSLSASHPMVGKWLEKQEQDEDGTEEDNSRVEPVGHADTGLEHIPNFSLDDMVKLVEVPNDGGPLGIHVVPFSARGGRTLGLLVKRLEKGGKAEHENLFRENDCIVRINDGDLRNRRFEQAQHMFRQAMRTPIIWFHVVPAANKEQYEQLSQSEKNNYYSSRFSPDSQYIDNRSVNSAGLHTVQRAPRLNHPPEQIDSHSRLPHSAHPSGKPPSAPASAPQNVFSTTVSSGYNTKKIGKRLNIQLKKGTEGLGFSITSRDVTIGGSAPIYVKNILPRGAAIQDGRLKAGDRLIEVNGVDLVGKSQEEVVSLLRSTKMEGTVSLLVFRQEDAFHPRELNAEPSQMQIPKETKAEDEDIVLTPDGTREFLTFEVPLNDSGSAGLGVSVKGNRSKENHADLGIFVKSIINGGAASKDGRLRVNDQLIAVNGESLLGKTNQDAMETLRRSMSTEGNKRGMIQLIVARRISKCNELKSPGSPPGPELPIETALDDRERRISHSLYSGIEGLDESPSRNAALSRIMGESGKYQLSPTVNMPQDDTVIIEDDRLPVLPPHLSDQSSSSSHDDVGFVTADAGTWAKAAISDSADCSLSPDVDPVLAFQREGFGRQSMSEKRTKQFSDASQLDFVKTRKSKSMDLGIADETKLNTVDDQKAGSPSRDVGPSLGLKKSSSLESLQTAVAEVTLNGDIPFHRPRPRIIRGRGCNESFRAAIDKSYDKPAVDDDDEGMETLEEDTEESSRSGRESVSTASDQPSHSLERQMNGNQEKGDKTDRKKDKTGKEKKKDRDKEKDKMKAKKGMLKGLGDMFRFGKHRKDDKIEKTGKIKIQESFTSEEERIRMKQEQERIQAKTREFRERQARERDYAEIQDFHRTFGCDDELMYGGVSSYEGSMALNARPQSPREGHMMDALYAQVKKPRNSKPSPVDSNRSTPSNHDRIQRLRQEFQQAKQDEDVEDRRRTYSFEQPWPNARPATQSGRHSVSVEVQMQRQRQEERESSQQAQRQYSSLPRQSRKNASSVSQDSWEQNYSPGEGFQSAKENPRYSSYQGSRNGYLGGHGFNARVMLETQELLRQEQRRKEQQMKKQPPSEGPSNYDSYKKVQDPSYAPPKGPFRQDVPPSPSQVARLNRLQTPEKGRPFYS
T10 sequence (Q13796 whole entry, the tested form may be a part): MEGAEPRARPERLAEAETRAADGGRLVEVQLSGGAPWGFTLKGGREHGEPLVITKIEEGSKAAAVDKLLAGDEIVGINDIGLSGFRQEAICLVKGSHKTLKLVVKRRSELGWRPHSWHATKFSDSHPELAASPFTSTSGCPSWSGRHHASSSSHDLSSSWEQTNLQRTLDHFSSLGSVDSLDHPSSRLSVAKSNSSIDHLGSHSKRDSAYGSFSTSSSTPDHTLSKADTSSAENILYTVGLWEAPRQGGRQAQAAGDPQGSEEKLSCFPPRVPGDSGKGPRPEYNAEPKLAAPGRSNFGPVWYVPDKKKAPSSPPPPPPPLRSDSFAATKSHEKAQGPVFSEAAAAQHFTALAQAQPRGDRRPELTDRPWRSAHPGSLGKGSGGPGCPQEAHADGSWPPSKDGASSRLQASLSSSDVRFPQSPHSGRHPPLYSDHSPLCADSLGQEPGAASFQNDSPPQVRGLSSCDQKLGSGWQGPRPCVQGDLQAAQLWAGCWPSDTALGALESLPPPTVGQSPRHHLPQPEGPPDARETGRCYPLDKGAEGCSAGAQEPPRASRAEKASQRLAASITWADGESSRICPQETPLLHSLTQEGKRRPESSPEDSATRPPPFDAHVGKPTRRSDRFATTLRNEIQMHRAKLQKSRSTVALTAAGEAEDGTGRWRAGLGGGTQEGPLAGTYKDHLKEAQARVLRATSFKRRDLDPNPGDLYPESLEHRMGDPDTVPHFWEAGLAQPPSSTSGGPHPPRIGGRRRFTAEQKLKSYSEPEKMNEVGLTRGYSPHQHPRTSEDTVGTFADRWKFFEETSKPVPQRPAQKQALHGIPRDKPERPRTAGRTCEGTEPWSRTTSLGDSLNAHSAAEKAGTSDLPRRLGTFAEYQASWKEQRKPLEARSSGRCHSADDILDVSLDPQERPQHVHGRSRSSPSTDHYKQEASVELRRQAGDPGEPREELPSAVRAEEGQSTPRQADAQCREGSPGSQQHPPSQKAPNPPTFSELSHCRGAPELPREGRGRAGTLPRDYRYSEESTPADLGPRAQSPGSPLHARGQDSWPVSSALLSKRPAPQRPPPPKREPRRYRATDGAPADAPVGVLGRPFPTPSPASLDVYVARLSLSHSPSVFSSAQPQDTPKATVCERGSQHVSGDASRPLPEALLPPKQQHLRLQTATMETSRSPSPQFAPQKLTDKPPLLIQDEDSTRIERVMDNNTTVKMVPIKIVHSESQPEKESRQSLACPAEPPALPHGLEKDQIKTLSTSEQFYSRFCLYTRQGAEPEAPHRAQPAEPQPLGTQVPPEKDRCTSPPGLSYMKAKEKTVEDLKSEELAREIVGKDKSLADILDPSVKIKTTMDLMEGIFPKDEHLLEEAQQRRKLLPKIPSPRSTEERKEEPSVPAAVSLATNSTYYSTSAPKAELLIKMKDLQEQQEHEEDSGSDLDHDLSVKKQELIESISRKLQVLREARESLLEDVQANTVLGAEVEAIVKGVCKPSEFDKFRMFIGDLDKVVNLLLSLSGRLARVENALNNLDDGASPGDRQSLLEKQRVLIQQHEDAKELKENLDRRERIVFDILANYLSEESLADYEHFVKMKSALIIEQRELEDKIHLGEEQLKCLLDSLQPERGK

Substance: NSYVRDDAIFIKAIVDLTGL (Biotin-NSYVRDDAIFIKAIVDLTGL) [TRAF2]
- Classification ([1]; PDZ KIAA807): 2 (A450 nm 1-2)
- Classification ([1]; PDZ KIAA0807(S), PDZ Domain 1): 4 (A450 nm 3-4)
- Classification [2]: 1 (A450 nm 0-1)

Substance: RIAYSLLGLKDQVNTVGIPI (Biotin-RIAYSLLGLKDQVNTVGIPI) [ephrin A2]
- Classification [3]: 1 (A450 nm 0-1)
- Classification [4]: 1 (A450 nm 0-1)
- Classification [5]: 1 (A450 nm 0-1)
- Classification [6]: 1 (A450 nm 0-1)

Substance: VDPNSPAAKKKYVSYNNLVI [GLUR7 (metabotropic glutamate receptor)]
- Classification [7]: 1 (A450 nm 0-1)
- Classification [8]: 1 (A450 nm 0-1)
- Classification [9]: 2 (A450 nm 1-2)

Substance: QGDPALQDAGDSSRKEYFI (Biotin-QGDPALQDAGDSSRKEYFI) [Glycophorin C]
- Classification [3]: 1 (A450 nm 0-1)
- Classification [9]: 2 (A450 nm 1-2)

Substance: PTR2_HUMAN (Biotin-RPMESNPDTEGAQGETEDVL)
- Classification [9]: 1 (A450 nm 0-1)
- Classification [10]: 1 (A450 nm 0-1)

Substance: LLNVLQRQELGDGLDDEIAV (Biotin-LLNVLQRQELGDGLDDEIAV)
- Classification ([1]; PDZ KIAA0807(S), PDZ Domain 1): 1 (A450 nm 0-1)
- Classification ([1]; PDZ KIAA807, PDZ Domain not given): 1 (A450 nm 0-1)
- Classification [11]: 1 (A450 nm 0-1)
- Classification [9]: 1 (A450 nm 0-1)
- Classification [10]: 1 (A450 nm 0-1)
- Classification [12]: 1 (A450 nm 0-1)
